Measurements as given in PMC4457860, “In Vitro Interaction of the Housekeeping SecA1 with the Accessory SecA2 Protein of Mycobacterium tuberculosis” (PLoS ONE, 2015).

Experiments:
[1] = target: Mycobacterium tuberculosis SecA1 (unlabeled) (Mycobacterium tuberculosis strain H37Rv) (UniProt P9WGP5); assay: SEC; Superdex 200 10/300 GL, 0.5 ml/min, 20 mM HEPES-KOH pH 7.5, 2 mM MgCl2, 50 mM arginine, low salt (30 mM KCl); protein 2-5 mg/ml; mass estimated with protein standards
[2] = target: Escherichia coli SecA labeled with Cy5 (E. coli) (UniProt P10408); assay: MST; Monolith NT.115; unlabeled protein (1 nM to 5 μM) titrated into 25 nM Cy5-labeled protein, mixed in 300 mM KCl, then diluted into low salt buffer (25 mM HEPES-KOH pH 7.5, 30 mM KCl, 2 mM MgCl2, 50 mM arginine); Hill fit, apparent Kd; dimer to monomers
[3] = target: the molecule itself; assay: SEC; Superdex 200 10/300 GL, 0.5 ml/min, 20 mM HEPES-KOH pH 7.5, 2 mM MgCl2, 50 mM arginine, low salt (30 mM KCl); protein 2-5 mg/ml; mass estimated with protein standards

Question: How did the stoichiometry N [1] turn out when “Mycobacterium tuberculosis SecA1 (unlabeled) (from UniProt P9WGP5 1-949) (natural protein)” was run?
Answer: 2

Question: Which Kd [2] does the source give for “Escherichia coli SecA (unlabeled) (from UniProt P10408 1-901) (natural protein)” here?
Answer: 31 nM

B1: Mycobacterium tuberculosis SecA2 (unlabeled) (natural protein)
chain: MVPKTTRAQPGRLSSRFWRLLGASTEKNRSRSLADVTASAEYDKEAADLSDEKLRKAAGLLNLDDLAESADIPQFLAIAREAAERRTGLRPFDVQLLGALRMLAGDVIEMATGEGKTLAGAIAAAGYALAGRHVHVVTINDYLARRDAEWMGPLLDAMGLTVGWITADSTPDERRTAYDRDVTYASVNEIGFDVLRDQLVTDVNDLVSPNPDVALIDEADSVLVDEALVPLVLAGTTHRETPRLEIIRLVAELVGDKDADEYFATDSDNRNVHLTEHGARKVEKALGGIDLYSEEHVGTTLTEVNVALHAHVLLQRDVHYIVRDDAVHLINASRGRIAQLQRWPDGLQAAVEAKEGIETTETGEVLDTITVQALINRYATVCGMTGTALAAGEQLRQFYQLGVSPIPPNKPNIREDEADRVYITTAAKNDGIVEHITEVHQRGQPVLVGTRDVAESEELHERLVRRGVPAVVLNAKNDAEEARVIAEAGKYGAVTVSTQMAGRGTDIRLGGSDEADHDRVAELGGLHVVGTGRHHTERLDNQLRGRAGRQGDPGSSVFFSSWEDDVVAANLDHNKLPMATDENGRIVSPRTGSLLDHAQRVAEGRLLDVHANTWRYNQLIAQQRAIIVERRNTLLRTVTAREELAELAPKRYEELSDKVSEERLETICRQIMLYHLDRGWADHLAYLADIRESIHLRALGRQNPLDEFHRMAVDAFASLAADAIEAAQQTFETANVLDHEPGLDLSKLARPTSTWTYMVNDNPLSDDTLSALSLPGVFR
notes: No tag; molecular mass 85 kDa on SDS-PAGE; also called PIP152
Question: How did the “stoichiometry N” value [3] turn out when B1 was run?
Answer: 2
